These are literature values, as cited in US20130064803A1, “BIO-REPLENISHMENT (BioRep) FOR COGNITIVE HEALTH” (Naidu LP, priority 2011, published 2013).

Bounds are passed on as bounds.

The conditions of this data set: intravenous infusion.

B1: LF: 80-kD heparan- and metal-binding glycoprotein, member of the transferrin super-family (protein, UniProt P02788 20-710, looked up)
Lactotransferrin: GRRRSVQWCAVSQPEATKCFQWQRNMRKVRGPPVSCIKRDSPIQCIQAIAENRADAVTLDGGFIYEAGLAPYKLRPVAAEVYGTERQPRTHYYAVAVVKKGGSFQLNELQGLKSCHTGLRRTAGWNVPIGTLRPFLNWTGPPEPIEAAVARFFSASCVPGADKGQFPNLCRLCAGTGENKCAFSSQEPYFSYSGAFKCLRDGAGDVAFIRESTVFEDLSDEAERDEYELLCPDNTRKPVDKFKDCHLARVPSHAVVARSVNGKEDAIWNLLRQAQEKFGKDKSPKFQLFGSPSGQKDLLFKDSAIGFSRVPPRIDSGLYLGSGYFTAIQNLRKSEEEVAARRARVVWCAVGEQELRKCNQWSGLSEGSVTCSSASTTEDCIALVLKGEADAMSLDGGYVYTAGKCGLVPVLAENYKSQQSSDPDPNCVDRPVEGYLAVAVVRRSDTSLTWNSVKGKKSCHTAVDRTAGWNIPMGLLFNQTGSCKFDEYFSQSCAPGSDPRSNLCALCIGDEQGENKCVPNSNERYYGYTGAFRCLAENAGDVAFVKDVTVLQNTDGNNNEAWAKDLKLADFALLCLDGKRKPVTEARSCHLAMAPNHAVVSRMDKVERLKQVLLHQQAKFGRNGSDCPDKFCLFQSETKNLLFNDNTECLARLHGKTTYEKYLGPQYVAGITNLKKCSTSPLLEACEFLRK
B1: the “time to reach the cerebrospinal fluid” value was at most 30 min.
